Data on 17 molecules can be found in patent US12281162 (LANOVA MEDICINES DEVELOPMENT, dated 2025).

First the molecules themselves.
B1: 34-H2L2 (antibody, V domains shown)
VH: EVQLVESGGGLVKPGGSLRLSCAASGFTFSSYGMSWVRQTPGKGLEWVATISSGGSYTYYPDSVKGRFTISRDNAKNSLYLQMSSLRAEDTAVYYCARQGGDAMDYWGQGTLVTVSS
VL: DIQMTQSPSSLSASVGDRVTITCRASQSINNNLHWYQQKPGKAPKLLIYYASQSISGIPSRFSGSGSGTDFTLTISSVQPEDFATYFCQQSNSRLTFGGGTKVEIK
notes: humanized 34D3H1, VH v2 x VL v2
B2: 34-H2L1 (antibody, V domains shown)
VH: EVQLVESGGGLVKPGGSLRLSCAASGFTFSSYGMSWVRQTPGKGLEWVATISSGGSYTYYPDSVKGRFTISRDNAKNSLYLQMSSLRAEDTAVYYCARQGGDAMDYWGQGTLVTVSS
VL: DIQMTQSPSSLSASVGDRVTITCRASQSINNNLHWYQQKPGKAPKLLIYYASQSISGVPSRFSGSGSGTDFTLTISSLQPEDFATYYCQQSNSRLTFGGGTKVEIK
notes: humanized 34D3H1, VH v2 x VL v1
B3: 34-H3L4 (antibody, V domains shown)
VH: EVHLVESGGGLVKPGGSLRLSCAASGFTFSSYGMSWVRQTPGKRLEWVATISSGGSYTYYPDSVKGRFTISRDNAKNSLNLQMSSLRAEDTAVYYCARQGGDAMDYWGQGTLVTVSS
VL: DIVLTQSPSSLSVSVGDRVTLTCRASQSINNNLHWYQQKPGKSPKLLIYYASQSISGIPSRFSGSGSGTDFTLTISSVQPEDFATYFCQQSNSRLTFGGGTKLEIK
notes: humanized 34D3H1, VH v3 x VL v4
B4: 34-H2L3 (antibody, V domains shown)
VH: EVQLVESGGGLVKPGGSLRLSCAASGFTFSSYGMSWVRQTPGKGLEWVATISSGGSYTYYPDSVKGRFTISRDNAKNSLYLQMSSLRAEDTAVYYCARQGGDAMDYWGQGTLVTVSS
VL: DIQLTQSPSSLSASVGDRVTITCRASQSINNNLHWYQQKPGKSPKLLIYYASQSISGIPSRFSGSGSGTDFTLTISSVQPEDFATYFCQQSNSRLTFGGGTKLEIK
notes: humanized 34D3H1, VH v2 x VL v3
B5: 34-H3L1 (antibody, V domains shown)
VH: EVHLVESGGGLVKPGGSLRLSCAASGFTFSSYGMSWVRQTPGKRLEWVATISSGGSYTYYPDSVKGRFTISRDNAKNSLNLQMSSLRAEDTAVYYCARQGGDAMDYWGQGTLVTVSS
VL: DIQMTQSPSSLSASVGDRVTITCRASQSINNNLHWYQQKPGKAPKLLIYYASQSISGVPSRFSGSGSGTDFTLTISSLQPEDFATYYCQQSNSRLTFGGGTKVEIK
notes: humanized 34D3H1, VH v3 x VL v1
B6: 34-H2L4 (antibody, V domains shown)
VH: EVQLVESGGGLVKPGGSLRLSCAASGFTFSSYGMSWVRQTPGKGLEWVATISSGGSYTYYPDSVKGRFTISRDNAKNSLYLQMSSLRAEDTAVYYCARQGGDAMDYWGQGTLVTVSS
VL: DIVLTQSPSSLSVSVGDRVTLTCRASQSINNNLHWYQQKPGKSPKLLIYYASQSISGIPSRFSGSGSGTDFTLTISSVQPEDFATYFCQQSNSRLTFGGGTKLEIK
notes: humanized 34D3H1, VH v2 x VL v4
B7: 34-H3L3 (antibody, V domains shown)
VH: EVHLVESGGGLVKPGGSLRLSCAASGFTFSSYGMSWVRQTPGKRLEWVATISSGGSYTYYPDSVKGRFTISRDNAKNSLNLQMSSLRAEDTAVYYCARQGGDAMDYWGQGTLVTVSS
VL: DIQLTQSPSSLSASVGDRVTITCRASQSINNNLHWYQQKPGKSPKLLIYYASQSISGIPSRFSGSGSGTDFTLTISSVQPEDFATYFCQQSNSRLTFGGGTKLEIK
notes: humanized 34D3H1, VH v3 x VL v3
B8: 34-H3L2 (antibody, V domains shown)
VH: EVHLVESGGGLVKPGGSLRLSCAASGFTFSSYGMSWVRQTPGKRLEWVATISSGGSYTYYPDSVKGRFTISRDNAKNSLNLQMSSLRAEDTAVYYCARQGGDAMDYWGQGTLVTVSS
VL: DIQMTQSPSSLSASVGDRVTITCRASQSINNNLHWYQQKPGKAPKLLIYYASQSISGIPSRFSGSGSGTDFTLTISSVQPEDFATYFCQQSNSRLTFGGGTKVEIK
notes: humanized 34D3H1, VH v3 x VL v2
B9: 34-H1L2 (antibody, V domains shown)
VH: EVQLVESGGGLVKPGGSLRLSCAASGFTFSSYGMSWVRQAPGKGLEWVSTISSGGSYTYYPDSVKGRFTISRDNAKNSLYLQMNSLRAEDTAVYYCARQGGDAMDYWGQGTLVTVSS
VL: DIQMTQSPSSLSASVGDRVTITCRASQSINNNLHWYQQKPGKAPKLLIYYASQSISGIPSRFSGSGSGTDFTLTISSVQPEDFATYFCQQSNSRLTFGGGTKVEIK
notes: humanized 34D3H1, VH v1 x VL v2
B10: 34-H1L3 (antibody, V domains shown)
VH: EVQLVESGGGLVKPGGSLRLSCAASGFTFSSYGMSWVRQAPGKGLEWVSTISSGGSYTYYPDSVKGRFTISRDNAKNSLYLQMNSLRAEDTAVYYCARQGGDAMDYWGQGTLVTVSS
VL: DIQLTQSPSSLSASVGDRVTITCRASQSINNNLHWYQQKPGKSPKLLIYYASQSISGIPSRFSGSGSGTDFTLTISSVQPEDFATYFCQQSNSRLTFGGGTKLEIK
notes: humanized 34D3H1, VH v1 x VL v3
B11: 34-H1L4 (antibody, V domains shown)
VH: EVQLVESGGGLVKPGGSLRLSCAASGFTFSSYGMSWVRQAPGKGLEWVSTISSGGSYTYYPDSVKGRFTISRDNAKNSLYLQMNSLRAEDTAVYYCARQGGDAMDYWGQGTLVTVSS
VL: DIVLTQSPSSLSVSVGDRVTLTCRASQSINNNLHWYQQKPGKSPKLLIYYASQSISGIPSRFSGSGSGTDFTLTISSVQPEDFATYFCQQSNSRLTFGGGTKLEIK
notes: humanized 34D3H1, VH v1 x VL v4
B12: 37-H2L2 (antibody, V domains shown)
VH: EVQLVESGGGLVQPGGSLRLSCAASGFTFSDYWMNWVRQSPGKGLEWVAEIRLKSNNYATHYAESVKGRFTISRDNAKSSLYLQMNSLRAEDTAVYYCTRPLLWFRRYYAMDYWGQGTLVTVSS
VL: DIQMTQSPSSLSASVGDRVTITCSASQGISNYLNWYQQKPGKTVKLLIYYTSSLHSGVPSRFSGSGSGTDYTLTISSLQPEDFATYYCQQYSKLPFTFGQGTKLEIK
notes: humanized 37B9C4, VH v2 x VL v2
B13: 37-H1L2 (antibody, V domains shown)
VH: EVQLVESGGGLVQPGGSLRLSCAASGFTFSDYWMNWVRQAPGKGLEWVAEIRLKSNNYATHYAESVKGRFTISRDNAKNSLYLQMNSLRAEDTAVYYCARPLLWFRRYYAMDYWGQGTLVTVSS
VL: DIQMTQSPSSLSASVGDRVTITCSASQGISNYLNWYQQKPGKTVKLLIYYTSSLHSGVPSRFSGSGSGTDYTLTISSLQPEDFATYYCQQYSKLPFTFGQGTKLEIK
notes: humanized 37B9C4, VH v1 x VL v2
B14: 37-H1L3 (antibody, V domains shown)
VH: EVQLVESGGGLVQPGGSLRLSCAASGFTFSDYWMNWVRQAPGKGLEWVAEIRLKSNNYATHYAESVKGRFTISRDNAKNSLYLQMNSLRAEDTAVYYCARPLLWFRRYYAMDYWGQGTLVTVSS
VL: DIQMTQSPSSLSASVGDRITITCSASQGISNYLNWYQQKPGKTVKLLIYYTSSLHSGVPSRFSGSGSGTDYTLTISSLQPEDFATYYCQQYSKLPFTFGSGTKLEIK
notes: humanized 37B9C4, VH v1 x VL v3
B15: 58-H4L1 (antibody, V domains shown)
VH: QVQLVQSGAEVKKPGASVKISCKASGYSFTGYYIHWVKQAPGQGLEWIGYISSYNAATSFNQKFKGRATFTVDTSTSTAYMEFSSLRSEDSAVYYCARTELRGPWFAYWGQGTLVTVSS
VL: DIQMTQSPSSLSASVGDRVTITCSASSSVSYMNWYQQKPGKAPKLLIYDTSKLASGVPSRFSGSGSGTDFTLTISSLQPEDFATYYCQQWSNNPLTFGQGTKLEIK
notes: humanized 58F9G10, VH v4 x VL v1
B16: 58-H4L2 (antibody, V domains shown)
VH: QVQLVQSGAEVKKPGASVKISCKASGYSFTGYYIHWVKQAPGQGLEWIGYISSYNAATSFNQKFKGRATFTVDTSTSTAYMEFSSLRSEDSAVYYCARTELRGPWFAYWGQGTLVTVSS
VL: DTQMTQSPSSLSASVGDRVTITCSASSSVSYMNWYQQKPGKAPKRLIYDTSKLASGVPSRFSGSGSGTDYTLTISSLQPEDFATYYCQQWSNNPLTFGQGTKLEIK
notes: humanized 58F9G10, VH v4 x VL v2
B17: 58-H4L3 (antibody, V domains shown)
VH: QVQLVQSGAEVKKPGASVKISCKASGYSFTGYYIHWVKQAPGQGLEWIGYISSYNAATSFNQKFKGRATFTVDTSTSTAYMEFSSLRSEDSAVYYCARTELRGPWFAYWGQGTLVTVSS
VL: DTQLTQSPSSLSASVGDRVTMTCSASSSVSYMNWYQQKPGKAPKRLIYDTSKLASGVPSRFSGSGSGTDYTLTISSMQPEDFATYYCQQWSNNPLTFGQGTKLEIK
notes: humanized 58F9G10, VH v4 x VL v3

The target of the first test is T1, human G-protein-coupled receptor family C group 5 member D (GPRC5D) (human, UniProt Q9NZD1 1-345).
T1 construct: whole, on cells; also called human GPRC5D protein
T1 sequence (Q9NZD1 whole entry): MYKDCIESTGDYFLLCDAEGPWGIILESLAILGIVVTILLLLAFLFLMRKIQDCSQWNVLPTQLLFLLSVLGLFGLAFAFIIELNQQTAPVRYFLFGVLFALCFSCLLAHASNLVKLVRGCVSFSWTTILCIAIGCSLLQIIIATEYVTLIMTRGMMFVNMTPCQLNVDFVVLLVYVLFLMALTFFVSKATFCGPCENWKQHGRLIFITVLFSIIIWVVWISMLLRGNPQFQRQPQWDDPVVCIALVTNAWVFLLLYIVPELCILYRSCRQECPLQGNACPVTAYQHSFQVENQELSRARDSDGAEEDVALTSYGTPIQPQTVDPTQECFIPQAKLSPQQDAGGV
The test is described as follows: FACS, CHO-K1/GPRC5D.
For the molecule B1, the Bottom was determined as 8740, the LogEC50 turned out to be 0.625, the Span turned out to be 170000 and the Top stood at 179000.
B2 displayed a Bottom of 7850, a LogEC50 of 0.619, a Span of 179000 and a Top of 187000.
The like results for B3 were, in that order, 12800, 0.598, 180000 and 193000.
For B4, in that order: 7060, 0.583, 179000 and 186000.
For B5, in that order: 11100, 0.521, 167000 and 178000.
For the molecule B6, the Bottom was found to be 4390, the LogEC50 came to 0.609, the Span came out at 188000 and the Top stood at 192000.
The like results for B7 were, in that order, 9120, 0.651, 184000 and 193000.
On to B8, for which the Bottom was 9040, the LogEC50 is 0.646, the Span came to 171000 and the Top is 180000.
For B9, in that order: 13900, 0.584, 168000 and 182000.
For B10, in that order: 10600, 0.573, 175000 and 186000.
The like results for B11 were, in that order, 10300, 0.6, 179000 and 189000.

In another test the target is T1, human G-protein-coupled receptor family …. The test is described as follows: FACS, CHO-K1/GPRC5D. This is another data set of the same source.
B12 gave a Bottom of 9380, a LogEC50 of 0.345, a Span of 166000 and a Top of 175000.
In turn, B13 yielded a Bottom of 8850, a LogEC50 of 0.35, a Span of 173000 and a Top of 182000.
The like results for B14 were, in that order, 10400, 0.233, 163000 and 173000.

The target is the same in a further test. The test is described as follows: FACS, CHO-K1/GPRC5D. This is another data set of the same source.
Consider B15, for which the Bottom amounted to 4990, the LogEC50 stood at 0.365, the Span came to 99600 and the Top was determined as 105000.
For B16, in that order: 4600, 0.341, 100000 and 105000.
The like results for B17 were, in that order, 6250, 0.287, 96400 and 103000.
